Experiment [1] concerns the target T1, human IL-17 receptor (IL-17RA) on transfected cells (human), Q96F46. Kind of experiment: saturation binding, iodinated cytokine on transfected BHK cells; saturation binding, iodinated hIL-17F on hIL-17RA BHK cells. The conditions noted are these: remark: other sources report otherwise.
Experiment [2] has as its target T1, human IL-17 receptor (IL-17RA) on …. Kind of experiment: saturation binding, iodinated cytokine on transfected BHK cells; saturation binding; fold comparison with the other Kd values of Table 1. The conditions noted are these: remark: other sources report otherwise.

T1 sequence (Q96F46 33-320 limits assumed): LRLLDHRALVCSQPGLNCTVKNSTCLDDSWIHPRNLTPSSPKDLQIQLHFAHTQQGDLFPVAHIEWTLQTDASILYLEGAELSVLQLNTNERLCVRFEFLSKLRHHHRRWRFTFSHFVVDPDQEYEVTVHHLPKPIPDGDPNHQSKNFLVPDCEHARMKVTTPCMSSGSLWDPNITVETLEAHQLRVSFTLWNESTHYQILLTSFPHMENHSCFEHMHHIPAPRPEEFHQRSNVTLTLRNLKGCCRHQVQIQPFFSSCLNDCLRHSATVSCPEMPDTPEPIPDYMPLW

B1: human IL-17F, Q96PD4 31-163 (ligand)
chain: RKIPKVGHTFFQKPESCPPVPGGSMKLDIGIINENQRVSMSRNIESRSTSPWNYTVTWDPNRYPSEVVQAQCRNLGCINAQGKEDISMNSVPIQQETLVVRRKHQGCSVSFQLEKVLVTVGCTCVTPVIHHVQ
In turn, B1 showed a Kd in experiment [1] of 1500 nM. Moreover, in experiment [2], the fold lower affinity relative to the other affinities measured is 1000 fold.

(Values after US20110014656A1.)
